This note sets out measurements from PMC4197961 (Genes & Development, 2014).

The target in assay [1] is truncated KDM2A construct (36–517) lacking the 1–35 and 365–449 peptide segments (UniProt Q9Y2K7).
For a further assay, the target named is T1, KDM2A K323A/F324A (UniProt Q9Y2K7 1-1162, K323A | F324A).
T1 sequence (looked up): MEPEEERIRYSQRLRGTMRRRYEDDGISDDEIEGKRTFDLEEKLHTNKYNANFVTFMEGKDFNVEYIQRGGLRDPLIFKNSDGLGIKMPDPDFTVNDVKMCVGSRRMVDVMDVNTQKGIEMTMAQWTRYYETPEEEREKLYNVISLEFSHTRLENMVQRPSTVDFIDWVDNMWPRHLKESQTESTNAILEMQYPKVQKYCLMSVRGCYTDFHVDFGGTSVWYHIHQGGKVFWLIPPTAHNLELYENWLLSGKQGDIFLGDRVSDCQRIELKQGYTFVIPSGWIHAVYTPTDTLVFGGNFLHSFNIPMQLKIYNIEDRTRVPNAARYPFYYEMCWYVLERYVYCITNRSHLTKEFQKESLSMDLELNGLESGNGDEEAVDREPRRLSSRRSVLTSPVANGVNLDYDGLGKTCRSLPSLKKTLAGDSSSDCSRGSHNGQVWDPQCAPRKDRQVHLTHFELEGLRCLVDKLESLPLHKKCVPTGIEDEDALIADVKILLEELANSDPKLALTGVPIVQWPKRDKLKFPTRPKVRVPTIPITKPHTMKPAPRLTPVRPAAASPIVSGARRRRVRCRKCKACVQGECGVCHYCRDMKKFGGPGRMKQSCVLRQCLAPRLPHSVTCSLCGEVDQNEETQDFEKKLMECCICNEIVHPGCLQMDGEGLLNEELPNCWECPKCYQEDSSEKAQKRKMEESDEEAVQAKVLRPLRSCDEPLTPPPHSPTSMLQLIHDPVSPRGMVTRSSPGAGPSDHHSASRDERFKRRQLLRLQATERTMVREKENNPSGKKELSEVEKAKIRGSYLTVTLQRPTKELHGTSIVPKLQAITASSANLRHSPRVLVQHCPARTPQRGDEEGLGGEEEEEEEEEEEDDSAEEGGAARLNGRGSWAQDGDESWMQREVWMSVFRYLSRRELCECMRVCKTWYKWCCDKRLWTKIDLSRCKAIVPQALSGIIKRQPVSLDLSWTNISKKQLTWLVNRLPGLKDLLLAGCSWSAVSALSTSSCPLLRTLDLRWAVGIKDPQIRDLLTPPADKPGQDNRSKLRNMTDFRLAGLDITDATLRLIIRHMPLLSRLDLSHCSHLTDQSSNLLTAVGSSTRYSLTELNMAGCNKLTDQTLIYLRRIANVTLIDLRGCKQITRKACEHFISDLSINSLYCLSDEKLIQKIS
The experiment in a line: cell-based or functional assay.

The next assay deals with T2, KDM2A N186A (UniProt Q9Y2K7 1-1162, N186A).
T2 sequence (looked up): T1 sequence (looked up) with N186A, A323K, A324F
As to the kind of experiment: cell-based or functional assay.

Positions count from the first letter of the chain named. Ends that are not written are not given here. Me2 = dimethyl (dimethyl-lysine)

H3K36me2 peptide Y41A gave a demethylation of the mutant H3K36me2 peptide by wild-type KDM2A in vitro in assay [1] of less than 2 fold.

B1: H3(A29–Y41)K36me2 peptide (peptide)
peptide: APATGGVK(Me2)KPHRY
In the case of B1, the “H3K36me2 demethylation activity in vitro, fluorescence-based assay” value in the assay with KDM2A K323A/F324A and in the assay with KDM2A N186A was approximately 3 fold reduction each time.
